Assay results as given in patent publication US20100015650.

Key:
[1] = biological target: T1, BRB1 tyrosine kinase substrate peptide
T1 chain: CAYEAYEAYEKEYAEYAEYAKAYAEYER

B1: ROS (protein)
chain: HRRLKNQKSAKEGVTVLINEDKELAELRGLAAGVGLANACYAIHTLPTQEEIENLPAFPREKLTLRLLLGSGAFGEVYEGTAVDILGVGSGEIKVAVKTLKKGSTDQEKIEFLKEAHLMSKFNHPNILKQLGVCLLNEPQYIILELMEGGDLLTYLRKARMATFYGPLLTLVDLVDLCVDISKGCVYLERMHFIHRDLAARNCLVSVKDYTSPRIVKIGDFGLARDIYKNDYYRKRGEGLLPVRWMAPESLMDGIFTTQSDVWSFGILIWEILTLGHQPYPAHSNLDVLNYVQTGGRLEPPRNCPDDLWNLMTQCWAQEPDQRPTFHRIQDQLQLFRNFFLNSIYKSRDEANNSGVINESFEGEDGDVICLNSDDIMPVALMETKNREGLNYMVLATECGQGEEKSEGPLGSQESESCGLRKEEKEPHADKDFCQEKQVAYCPSGKPEGLNYACLTHSGYGDGSD
- Signal to Noise ratio with BRB1 Peptide (TR-FRET kinase assay; kinase 0.25 nM) [1]: 24.5

B2: EphA4 (protein)
chain: SRRRSKYSKAKQEADEEKHLNQGVRTYVDPFTYEDPNQAVREFAKEIDASCIKIEKVIGVGEFGEVCSGRLKVPGKREICVAIKTLKAGYTDKQRRDFLSEASIMGQFDHPNIIHLEGVVTKCKPVMIITEYMENGSLDAFLRKNDGRFTVIQLVGMLRGIGSGMKYLSDMSYVHRDLAARNILVNSNLVCKVSDFGMSRVLEDDPEAAYTTRGGKIPIRWTAPEAIAYRKFTSASDVWSYGIVMWEVMSYGERPYWDMSNQDVIKAIEEGYRLPPPMDCPIALHQLMLDCWQKERSDRPKFGQIVNMLDKLIRNPNSLKRTGTESSRPNTALLDPSSPEFSAVVSVGDWLQAIKMDRYKDNFTAAGYTTLEAVVHVNQEDLARIGITAITHQNKILSSVQAMRTQMQQMHGRMVPV
- Average Signal at 665 nm (TR-FRET kinase assay; kinase 2 nM, read 1 h after adding Eu-PT66 antibody) [1]: 134000
- Average Signal at 665 nm (TR-FRET kinase assay; kinase 2 nM, read 18 h after adding Eu-PT66 antibody) [1]: 117000
- Average Signal at 665 nm (TR-FRET kinase assay; kinase 2 nM, read 24 h after adding Eu-PT66 antibody) [1]: 116000
- Signal to Noise ratio with BRB1 Peptide (TR-FRET kinase assay; kinase 0.5 nM) [1]: 31.5
- Average Signal at 665 nm (TR-FRET kinase assay; kinase 2 nM, read 1 h after adding Eu-PT66 antibody) (poly-EAY): 110000
- Average Signal at 665 nm (TR-FRET kinase assay; kinase 2 nM, read 18 h after adding Eu-PT66 antibody) (poly-EAY): 51400
- Average Signal at 665 nm (TR-FRET kinase assay; kinase 2 nM, read 24 h after adding Eu-PT66 antibody) (poly-EAY): 45800
- Average Signal at 665 nm (TR-FRET kinase assay; kinase 2 nM, read 1 h after adding Eu-PT66 antibody) (poly-EY): 89000
- Average Signal at 665 nm (TR-FRET kinase assay; kinase 2 nM, read 18 h after adding Eu-PT66 antibody) (poly-EY): 35000
- Average Signal at 665 nm (TR-FRET kinase assay; kinase 2 nM, read 24 h after adding Eu-PT66 antibody) (poly-EY): 30100

B3: BTK (protein)
chain: AAVILESIFLKRSQQKKKTSPLNFKKRLFLLTVHKLSYYEYDFERGRRGSKKGSIDVEKITCVETVVPEKNPPPERQIPRRGEESSEMEQISIIERFPYPFQVVYDEGPLYVFSPTEELRKRWIHQLKNVIRYNSDLVQKYHPCFWIDGQYLCCSQTAKNAMGCQILENRNGSLKPGSSHRKTKKPLPPTPEEDQILKKPLPPEPAAAPVSTSELKKVVALYDYMPMNANDLQLRKGDEYFILEESNLPWWRARDKNGQEGYIPSNYVTEAEDSIEMYEWYSKHMTRSQAEQLLKQEGKEGGFIVRDSSKAGKYTVSVFAKSTGDPQGVIRHYVVCSTPQSQYYLAEKHLFSTIPELINYHQHNSAGLISRLKYPVSQQNKNAPSTAGLGYGSWEIDPKDLTFLKELGTGQFGVVKYGKWRGQYDVAIKMIKEGSMSEDEFIEEAKVMMNLSHEKLVQLYGVCTKQRPIFIITEYMANGCLLNYLREMRHRFQTQQLLEMCKDVCEAMEYLESKQFLHRDLAARNCLVNDQGVVKVSDFGLSRYVLDDEYTSSVGSKFPVRWSPPEVLMYSKFSSKSDIWAFGVLMWEIYSLGKMPYERFTNSETAEHIAQGLRLYRPHLASEKVYTIMYSCWHEKADERPTFKILLSNILDVMDEES
- Signal to Noise ratio with BRB1 Peptide (TR-FRET kinase assay; kinase 0.25 nM) [1]: 6.8

B4: TIE2 (protein)
chain: QLKRANVQRRMAQAFQNVREEPAVQFNSGTLALNRKVKNNPDPTIYPVLDWNDIKFQDVIGEGNFGQVLKARIKKDGLRMDAAIKRMKEYASKDDHRDFAGELEVLCKLGHHPNIINLLGACEHRGYLYLAIEYAPHGNLLDFLRKSRVLETDPAFAIANSTASTLSSQQLLHFAADVARGMDYLSQKQFIHRDLAARNILVGENYVAKIADFGLSRGQEVYVKKTMGRLPVRWMAIESLNYSVYTTNSDVWSYGVLLWEIVSLGGTPYCGMTCAELYEKLPQGYRLEKPLNCDDEVYDLMRQCWREKPYERPSFAQILVSLNRMLEERKTYVNTTLYEKFTYAGIDCSAEEAA
- Signal to Noise ratio with BRB1 Peptide (TR-FRET kinase assay; kinase 0.5 nM) [1]: 17.7

B5: CSK (protein)
chain: MSAIQAAWPSGTECIAKYNFHGTAEQDLPFCKGDVLTIVAVTKDPNWYKAKNKVGREGIIPANYVQKREGVKAGTKLSLMPWFHGKITREQAERLLYPPETGLFLVRESTNYPGDYTLCVSCDGKVEHYRIMYHASKLSIDEEVYFENLMQLVEHYTSDADGLCTRLIKPKVMEGTVAAQDEFYRSGWALNMKELKLLQTIGKGEFGDVMLGDYRGNKVAVKCIKNDATAQAFLAEASVMTQLRHSNLVQLLGVIVEEKGGLYIVTEYMAKGSLVDYLRSRGRSVLGGDCLLKFSLDVCEAMEYLEGNNFVHRDLAARNVLVSEDNVAKVSDFGLTKEASSTQDTGKLPVKWTAPEALREKKFSTKSDVWSFGILLWEIYSFGRVPYPRIPLKDVVPRVEKGYKMDAPDGCPPAVYEVMKNCWHLDAAMRPSFLQLREQLEHIKTHELHL
- Signal to Noise Ratio with BRB1 Peptide (TR-FRET kinase assay; kinase 20 nM) [1]: 27.2

B6: TYRO3 (protein)
chain: LRKRRKETRFGQAFDSVMARGEPAVHFRAARSFNRERPERIEATLDSLGISDELKEKLEDVLIPEQQFTLGRMLGKGEFGSVREAQLKQEDGSFVKVAVKMLKADIIASSDIEEFLREAACMKEFDHPHVAKLVGVSLRSRAKGRLPIPMVILPFMKHGDLHAFLLASRIGENPFNLPLQTLIRFMVDIACGMEYLSSRNFIHRDLAARNCMLAEDMTVCVADFGLSRKIYSGDYYRQGCASKLPVKWLALESLADNLYTVQSDVWAFGVTMWEIMTRGQTPYAGIENAEIYNYLIGGNRLKQPPECMEDVYDLMYQCWSADPKQRPSFTCLRMELENILGQLSVLSASQDPLYINIERAEEPTAGGSLELPGRDQPYSGAGDGSGMGAVGGTPSDCRYILTPGGLAEQPGQAEHQPESPLNETQRLLLLQQGLLPHSSC
- Signal to Noise ratio with BRB1 Peptide (TR-FRET kinase assay; kinase 0.25 nM) [1]: 6.1
